Measurements from patent US20240018268A1 (JUNO THERAPEUTICS, published 2024).
Each block holds one binder with its values, some of them ahead of it.

Tests used:
[1] = target: T1, anti-CD19 (SJ25C1-derived) chimeric antigen receptor (CAR), expressed on T cells or Jurkat cells (human, UniProt P10747 153-179; P10747 180-220; P20963 52-163, limits assumed); assay: flow cytometry, biotin-conjugated antibody and PE-streptavidin on CAR-transduced cells
T1 construct: domain: transmembrane domain;domain: intracellular signaling domain;domain: signaling domain; Whole CAR on the surface of transduced human T cells, PBMCs or Jurkat cells; also called anti-CD19 (SJ25C1) CAR; SJ25C1-derived CAR
Protocol: Hybridoma fusion clones were generated and 12 candidate clones were further characterized by flow cytometry. Peripheral blood mononuclear cells were isolated from human subjects and cells were activated and transduced with a viral vector encoding the anti-CD19 CAR. For flow cytometry, about 1×10⁶ cells per 100 μL were incubated with 10 μL of biotin-conjugated anti-idiotype antibody followed by staining with a PE-conjugated streptavidin. As a positive control for surface expression of the CAR, cells were stained with an anti-EGFR antibody to verify expression of the EGFRt transduction marker, which was a surrogate of CAR expression. […] Cells were gated on CD3⁺ CD4⁺/CD8⁺ PBMCs and fluorescence signal was determined. […] To confirm the antibodies were specific for the scFv derived from the anti-CD19 antibody derived from FMC63, similar experiments were performed on cells transduced with an anti-CD19 CAR derived from SJ25C1 as described in Example 1. […] Anti-idiotype antibody clones B-1 (anti-ID B-1) and B-2 (anti-ID B-2) were selected for further characterization.

[2] = target: T2, anti-CD19 (FMC63-derived) chimeric antigen receptor (CAR), expressed on T cells; assay: flow cytometry, CAR T cells spiked into human PBMCs
T2 construct: Whole CAR on the surface of transduced human T cells/PBMCs, co-expressed with EGFRt from the same construct (T2A); treated here as one molecule; also called anti-CD19 (FMC63) CAR; FMC63-derived CAR
Protocol: The anti-CD19 CAR expressing cells were spiked in to a sample of cells containing healthy human peripheral blood mononuclear cells (PBMCs). The resulting cell compositions were incubated with different concentrations of the anti-CD19 FMC63 scFv-specific anti-ID B1 or anti-ID B2 antibodies. As a control, samples of each condition were also incubated with a concentration of anti-EGFR antibody, capable of detecting the EGFRt surrogate marker on the transduced cells. Control samples included those only containing the PBMCs without the addition of added CAR− expressing T cells. Geometric mean fluorescence intensity (MFI) was quantified in positively labeled cells to assess antibody staining.

[3] = target: T3, human Fc-fusion protein containing the FMC63-derived scFv portion of the CAR (biotinylated ECD fusion protein … (biotinylated (capture form))); sulfo-tagged (detection form)); assay: bridge assay, biotinylated scFv-Fc on streptavidin plate, sulfo-tagged scFv-Fc detection, ECL (MSD)
T3 construct: also called FMC63-derived Fc-scFv fusion; not shown: human Fc
From the text: A bridge anti-therapeutic antibody (ATA) assay was developed to detect the presence or absence of antibodies, in serum of treated subjects, recognizing administered anti-CD19 CARs. Certain anti-ID antibodies described in Examples 1-3 were used as positive controls and to validate the ability of the assay to detect the presence of such antibodies.
A biotinylated human Fc-fusion protein (biotinylated ECD fusion protein) was used, containing an scFv portion of the CAR with variable regions derived from FMC63 (set forth in SEQ ID NO:34). The biotinylated ECD fusion protein was added to streptavidin-coated wells; the plates were incubated under conditions to allow binding of the fusion protein, and washed. To the biotinylated fusion protein-coated wells, various concentrations of anti-ID B-1 or anti-ID B-2 were added to the wells, and allowed to incubate under conditions to allow specific binding of the antibody. After washing, a sulfo-tagged version of the ECD fusion protein (sulfo-ECD fusion protein) containing the FMC63-derived Fc-scFv fusion. The wells were washed and an electrochemiluminescence (ECL) signal was read on a Meso Scale Discovery (MSD) Sector Imager.

[4] = target: T2, anti-CD19 (FMC63-derived) chimeric …; assay: inferred from a T cell proliferation assay with plate-bound antibody
Protocol: For proliferation studies, engineered T cells were labeled with 50 nM carboxyfluorescein succinimidyl ester (CFSE) or CELL TRACE VIOLET (CTV) dye. Where relevant, expression of the surrogate EGFRt marker was detected by staining with an anti-EGFR antibody. Cells were seeded at a fixed number of cells per well in wells previously coated with 10, 5, 2.5, or 1.25 μg/ml of OKT3 (anti-CD3 antibody), or of anti-idiotype antibodies recognizing SJ25C1 and FMC63 (anti-ID A-land anti-ID B-1, respectively) in sodium carbonate/bicarbonate buffer (pH 9.0) overnight. Cells seeded in wells with no antibody coating were included as negative controls. The cells were cultured for 4 days and assessed for viability, proliferation, and expression of CD69 and CD25.
Proliferation of anti-CD19 (SJ25C1 or FMC63) CAR− expressing T cells was assessed by dye dilution using flow cytometry. The percent of CD3⁺/CFSE® w cells observed following stimulation of anti-CD19 (SJ25C1) CAR− expressing T cells with anti-ID A-1 is shown in FIG. 2A. The percent of CD3⁺/EGFR+/CFSE® W cells observed following stimulation of anti-CD19 (FMC63) CAR− expressing T cells with anti-ID B-1 is shown in FIG. 2B. […]

[5] = target: recombinant soluble extracellular domain (ECD) portion of the anti-CD19 (SJ25C1-derived) CAR (human); assay: ELISA on the recombinant soluble ECD portion; A-1 is the one named clone of the five
Sequence of recombinant soluble extracellular domain (ECD) portion of the anti-CD19 (SJ25C1-derived) CAR (human) (chain, as listed by the source): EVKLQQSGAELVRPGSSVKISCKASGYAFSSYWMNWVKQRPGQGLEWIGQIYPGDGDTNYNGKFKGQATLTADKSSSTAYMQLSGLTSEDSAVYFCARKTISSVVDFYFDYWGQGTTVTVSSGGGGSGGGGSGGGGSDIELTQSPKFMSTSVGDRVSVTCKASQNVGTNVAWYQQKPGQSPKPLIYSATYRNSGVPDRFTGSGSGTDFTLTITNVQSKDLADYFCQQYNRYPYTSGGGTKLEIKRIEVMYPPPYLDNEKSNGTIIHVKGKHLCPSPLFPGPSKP

T1 sequence (P10747 other isoform, or with tags, fused parts or gaps mutant limits assumed): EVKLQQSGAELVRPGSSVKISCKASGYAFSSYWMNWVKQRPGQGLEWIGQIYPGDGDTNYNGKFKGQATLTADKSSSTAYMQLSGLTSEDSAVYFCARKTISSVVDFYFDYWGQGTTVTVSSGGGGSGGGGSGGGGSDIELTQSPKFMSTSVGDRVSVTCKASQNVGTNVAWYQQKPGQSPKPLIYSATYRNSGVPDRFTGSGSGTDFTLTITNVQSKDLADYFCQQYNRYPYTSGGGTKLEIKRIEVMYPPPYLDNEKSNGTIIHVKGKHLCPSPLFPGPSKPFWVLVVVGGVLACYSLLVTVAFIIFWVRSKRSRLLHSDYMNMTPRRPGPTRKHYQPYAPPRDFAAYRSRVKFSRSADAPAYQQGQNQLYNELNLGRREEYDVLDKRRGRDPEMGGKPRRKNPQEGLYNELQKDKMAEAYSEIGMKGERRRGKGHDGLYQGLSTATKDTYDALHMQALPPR

- binding result [1]: no binding
- binding result [2]: binds
- binding result [3]: binds
B1: anti-idiotype antibody clone B-2 (anti-ID B-2) (antibody, mouse IgG1, kappa, V domains shown)
VH: QVQLQQPGAELVRPGASVKLSCKTSGYSFTRYWMNWVKQRPGQGLEWIGMIHPSDSETRLNQKFKDKATLTVDNSSSTAYMQLSSPTSEDSAVYYCASIYYEEAWGQGTLVTVSA
VL: DIQMTQSPASLSASVGETVTITCRASGNIHNYLAWYQQKQGKSPQLLVYNAKTLADSVPSRFSGSGSGTQYSLKINSLQPEDFGSYYCQHFWSTPYTFGGGTKLEIKR
notes: Mouse hybridoma antibody

- binding result [4]: binds
- binding result [1]: no binding
- binding result [3]: binds
B2: anti-idiotype antibody clone B-1 (anti-ID B-1) (antibody, mouse IgG2a, kappa, V domains shown)
VH: EVQLQQSGPELVKPGASVKMSCKASGYTFTDYYMKWVKQCHGKSLEWIGDINPNNGGTDYNQNFKGKATLTVDKSSSTAYMQLNSLTSEDSAVYYCAREGNNYGSRDAMDYWGQGTSVTVSS
VL: QIVLTQSPALMSASPGEKVTMTCSASSGVIYMYWYQQKPRSSPKPWIYLTSNLASGVPARFSGSGSGTSYSLTISSMEAEDAATYYCQQWSSNPLTFGAGTKLELKR
notes: Mouse hybridoma antibody; also called FMC63-derived scFv-specific anti-idiotype antibody

- binding result [5]: binds
B3: anti-idiotype antibody clone A-1 (anti-ID A-1) (antibody, mouse IgG1, kappa, V domains shown)
VH: QVQLQQPGSELVRPGGSVKLSCKASDYTFTSYWMHWVRQRPGQGLEWIGNIYPGSGGTNYDEKFKRKATLTVDTSSSTAYMQLRSLTSEDSAVYYCTREVTTVAYYYSMDYWGQGTSVTVSS
VL: DIQMTQTTSSLSASLGDRVTISCRASQDISNYLNWYQQKPDGTVKLLIYYTSRLHSGVPSRFSGSGSGTDYSLTISNLEQEDIATYFCQQGKTVPFTFGSGTKLEIKR
notes: Mouse hybridoma antibody; also called SJ25C1-derived scFv-specific anti-idiotype antibody; SJ25C1-specific anti-idiotype antibody
